From PMC2115937

Biological target: epidermal growth factor receptor (EGF receptor kinase), rat liver (rat (endogenous in rat liver))
Test: polyethylene glycol precipitation of receptor-bound radioligand

“epidermal growth factor (EGF) (from UniProt P01132 977-1029) (ligand)” was tested, and the percent of 125I-EGF in endosomes that is receptor bound (10 ug EGF injected) was 77%.
